Experimental data: PMC12269843 (2025)
Where no end group is shown, it is not given here. [ ]: non-standard residue; d: D form. Cit = NC(=O)NCCC[C@H](N)C(=O)O

Molecular target: HLA-DRB1*04:05 protein (human)
Assay: FP

- IC50: 4.81 µM
B1: TNC1014,1016cit peptide (peptide)
peptide: D[Cit]Y[Cit]LNYSLPTG
